# Data reported in the supplement of paper PMC11908140.
# B1: library; numbered along this chain (parent)
# chain: MRKPRAAVGSGHRKQAASQEGRQKHAKNNSQAKPSACDGLARQPEEVVLQASVSSYHLFRDVAEVTAFRGSLLSWYDQEKRDLPWRRRAEDEMDLDRRAYAVWVSEVMLQQTQVATVINYYTGWMQKWPTLQDLASASLEEVNQLWAGLGYYSRGRRLQEGARKVVEELGGHMPRTAETLQQLLPGVGRYTAGAIASIAFGQATGVVDGNVARVLCRVRAIGADPSSTLVSQQLWGLAQQLVDPARPGDFNQAAMELGATVCTPQRPLCSQCPVESLCRARQRVEQEQLLASGSLSGSPDVEECAPNTGQCHLCLPPSEPWDQTLGVVNFPRKASRKPPREESSATCVLEQPGALGAQILLVQRPNSGLLAGLWEFPSVTWEPSEQLQRKALLQELQRWAGPLPATHLRHLGEVVHTFSHIKLTYQVYGLALEGQTPVTTVPPGARWLTQEEFHTAAVSTAMKKVFRVYQGQQPGTCMGSKRSQVSSPCSRKKPRMGQQVLDNFFRSHISTDAHSLNSAAQ
# Variants of: B1
# Assay: 8OG:A repair function score (normalized; synonymous = 0, nonsense = -1) (normalized log-likelihood score); higher = more repair activity (WT-like)
# Conditions: with 8OG:A DNA repair reporter (GFP) in HEK-293 MUTYH KO cells
# Procedure, shortened: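 After 72 h, viable mCherry+ cells were split into GFP+ (repair) and GFP− bins in three replicates per tile. These cells were MUTYH knockout HEK-293 cells holding lentiviral MUTYH cDNA NNN codon-scan libraries, kept in 10 pg/ml doxycycline and co-transfected with mCherry plus an 8OG:A GFP repair reporter. Sequencing of tile amplicons gave per-tile Rosace fitness scores, normalized into a repair function score anchored on synonymous and nonsense distributions. Synonymous medians were fixed at 0, nonsense at -1, and variants under 300 counts per million at the start were removed.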
# 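Also: cells sorted at 72 h after reporter transfection.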
row,Variant,8OG:A repair function score
1,MRKPRAAVGSGHRKQAASQEGRQKHAKNNSQAKPSACDGLARQPEEVVLQASVSSYHLFRDVAEVTAFRGSLLSWYDQEKRDLPWRRRAEDEMDLDRRAYAVWVSEVMLQQTQVATVINYYTGWMQKWPTLQDLASASLEEVNQLWAGLGYYSRGRRLQEGARKVVEELGGHMPRTAETLQQLLPGVGRYTAGAIASIAFGQATGVVDGNVARVLCRVRAIGADPSSTLVSQQLWGLAQLLVDPARPGDFNQAAMELGATVCTPQRPLCSQCPVESLCRARQRVEQEQLLASGSLSGSPDVEECAPNTGQCHLCLPPSEPWDQTLGVVNFPRKASRKPPREESSATCVLEQPGALGAQILLVQRPNSGLLAGLWEFPSVTWEPSEQLQRKALLQELQRWAGPLPATHLRHLGEVVHTFSHIKLTYQVYGLALEGQTPVTTVPPGARWLTQEEFHTAAVSTAMKKVFRVYQGQQPGTCMGSKRSQVSSPCSRKKPRMGQQVLDNFFRSHISTDAHSLNSAAQ [Q240L],-0.948
2,MRKPRAAVGSGHRKQAASQEGRQKHAKNNSQAKPSACDGLARQPEEVVLQASVSSYHLFRDVAEVTAFRGSLLSWYDQEKRDLPWRRRAEDEMDLDRRAYAVWVSEVMLQQTQVATVINYYTGWMQKWPTLQDLASASLEEVNQLWAGLGYYSRGRRLQEGARKVVEELGGHMPRTAETLQQLLPGVGRYTAGAIASIAFGQATGVVDGNVARVLCRVRAIGADPSSTLVSQQLWGLAQFLVDPARPGDFNQAAMELGATVCTPQRPLCSQCPVESLCRARQRVEQEQLLASGSLSGSPDVEECAPNTGQCHLCLPPSEPWDQTLGVVNFPRKASRKPPREESSATCVLEQPGALGAQILLVQRPNSGLLAGLWEFPSVTWEPSEQLQRKALLQELQRWAGPLPATHLRHLGEVVHTFSHIKLTYQVYGLALEGQTPVTTVPPGARWLTQEEFHTAAVSTAMKKVFRVYQGQQPGTCMGSKRSQVSSPCSRKKPRMGQQVLDNFFRSHISTDAHSLNSAAQ [Q240F],-0.939
3,MRKPRAAVGSGHRKQAASQEGRQKHAKNNSQAKPSACDGLARQPEEVVLQASVSSYHLFRDVAEVTAFRGSLLSWYDQEKRDLPWRRRAEDEMDLDRRAYAVWVSEVMLQQTQVATVINYYTGWMQKWPTLQDLASASLEEVNQLWAGLGYYSRGRRLQEGARKVVEELGGHMPRTAETLQQLLPGVGRYTAGAIASIAFGQATGVVDGNVARVLCRVRAIGADPSSTLVSQQLWGLAQGLVDPARPGDFNQAAMELGATVCTPQRPLCSQCPVESLCRARQRVEQEQLLASGSLSGSPDVEECAPNTGQCHLCLPPSEPWDQTLGVVNFPRKASRKPPREESSATCVLEQPGALGAQILLVQRPNSGLLAGLWEFPSVTWEPSEQLQRKALLQELQRWAGPLPATHLRHLGEVVHTFSHIKLTYQVYGLALEGQTPVTTVPPGARWLTQEEFHTAAVSTAMKKVFRVYQGQQPGTCMGSKRSQVSSPCSRKKPRMGQQVLDNFFRSHISTDAHSLNSAAQ [Q240G],-1
4,MRKPRAAVGSGHRKQAASQEGRQKHAKNNSQAKPSACDGLARQPEEVVLQASVSSYHLFRDVAEVTAFRGSLLSWYDQEKRDLPWRRRAEDEMDLDRRAYAVWVSEVMLQQTQVATVINYYTGWMQKWPTLQDLASASLEEVNQLWAGLGYYSRGRRLQEGARKVVEELGGHMPRTAETLQQLLPGVGRYTAGAIASIAFGQATGVVDGNVARVLCRVRAIGADPSSTLVSQQLWGLAQRLVDPARPGDFNQAAMELGATVCTPQRPLCSQCPVESLCRARQRVEQEQLLASGSLSGSPDVEECAPNTGQCHLCLPPSEPWDQTLGVVNFPRKASRKPPREESSATCVLEQPGALGAQILLVQRPNSGLLAGLWEFPSVTWEPSEQLQRKALLQELQRWAGPLPATHLRHLGEVVHTFSHIKLTYQVYGLALEGQTPVTTVPPGARWLTQEEFHTAAVSTAMKKVFRVYQGQQPGTCMGSKRSQVSSPCSRKKPRMGQQVLDNFFRSHISTDAHSLNSAAQ [Q240R],-0.97
5,MRKPRAAVGSGHRKQAASQEGRQKHAKNNSQAKPSACDGLARQPEEVVLQASVSSYHLFRDVAEVTAFRGSLLSWYDQEKRDLPWRRRAEDEMDLDRRAYAVWVSEVMLQQTQVATVINYYTGWMQKWPTLQDLASASLEEVNQLWAGLGYYSRGRRLQEGARKVVEELGGHMPRTAETLQQLLPGVGRYTAGAIASIAFGQATGVVDGNVARVLCRVRAIGADPSSTLVSQQLWGLAQKLVDPARPGDFNQAAMELGATVCTPQRPLCSQCPVESLCRARQRVEQEQLLASGSLSGSPDVEECAPNTGQCHLCLPPSEPWDQTLGVVNFPRKASRKPPREESSATCVLEQPGALGAQILLVQRPNSGLLAGLWEFPSVTWEPSEQLQRKALLQELQRWAGPLPATHLRHLGEVVHTFSHIKLTYQVYGLALEGQTPVTTVPPGARWLTQEEFHTAAVSTAMKKVFRVYQGQQPGTCMGSKRSQVSSPCSRKKPRMGQQVLDNFFRSHISTDAHSLNSAAQ [Q240K],-0.932
6,MRKPRAAVGSGHRKQAASQEGRQKHAKNNSQAKPSACDGLARQPEEVVLQASVSSYHLFRDVAEVTAFRGSLLSWYDQEKRDLPWRRRAEDEMDLDRRAYAVWVSEVMLQQTQVATVINYYTGWMQKWPTLQDLASASLEEVNQLWAGLGYYSRGRRLQEGARKVVEELGGHMPRTAETLQQLLPGVGRYTAGAIASIAFGQATGVVDGNVARVLCRVRAIGADPSSTLVSQQLWGLAQNLVDPARPGDFNQAAMELGATVCTPQRPLCSQCPVESLCRARQRVEQEQLLASGSLSGSPDVEECAPNTGQCHLCLPPSEPWDQTLGVVNFPRKASRKPPREESSATCVLEQPGALGAQILLVQRPNSGLLAGLWEFPSVTWEPSEQLQRKALLQELQRWAGPLPATHLRHLGEVVHTFSHIKLTYQVYGLALEGQTPVTTVPPGARWLTQEEFHTAAVSTAMKKVFRVYQGQQPGTCMGSKRSQVSSPCSRKKPRMGQQVLDNFFRSHISTDAHSLNSAAQ [Q240N],-0.999
7,MRKPRAAVGSGHRKQAASQEGRQKHAKNNSQAKPSACDGLARQPEEVVLQASVSSYHLFRDVAEVTAFRGSLLSWYDQEKRDLPWRRRAEDEMDLDRRAYAVWVSEVMLQQTQVATVINYYTGWMQKWPTLQDLASASLEEVNQLWAGLGYYSRGRRLQEGARKVVEELGGHMPRTAETLQQLLPGVGRYTAGAIASIAFGQATGVVDGNVARVLCRVRAIGADPSSTLVSQQLWGLAQMLVDPARPGDFNQAAMELGATVCTPQRPLCSQCPVESLCRARQRVEQEQLLASGSLSGSPDVEECAPNTGQCHLCLPPSEPWDQTLGVVNFPRKASRKPPREESSATCVLEQPGALGAQILLVQRPNSGLLAGLWEFPSVTWEPSEQLQRKALLQELQRWAGPLPATHLRHLGEVVHTFSHIKLTYQVYGLALEGQTPVTTVPPGARWLTQEEFHTAAVSTAMKKVFRVYQGQQPGTCMGSKRSQVSSPCSRKKPRMGQQVLDNFFRSHISTDAHSLNSAAQ [Q240M],-0.867
8,MRKPRAAVGSGHRKQAASQEGRQKHAKNNSQAKPSACDGLARQPEEVVLQASVSSYHLFRDVAEVTAFRGSLLSWYDQEKRDLPWRRRAEDEMDLDRRAYAVWVSEVMLQQTQVATVINYYTGWMQKWPTLQDLASASLEEVNQLWAGLGYYSRGRRLQEGARKVVEELGGHMPRTAETLQQLLPGVGRYTAGAIASIAFGQATGVVDGNVARVLCRVRAIGADPSSTLVSQQLWGLAQDLVDPARPGDFNQAAMELGATVCTPQRPLCSQCPVESLCRARQRVEQEQLLASGSLSGSPDVEECAPNTGQCHLCLPPSEPWDQTLGVVNFPRKASRKPPREESSATCVLEQPGALGAQILLVQRPNSGLLAGLWEFPSVTWEPSEQLQRKALLQELQRWAGPLPATHLRHLGEVVHTFSHIKLTYQVYGLALEGQTPVTTVPPGARWLTQEEFHTAAVSTAMKKVFRVYQGQQPGTCMGSKRSQVSSPCSRKKPRMGQQVLDNFFRSHISTDAHSLNSAAQ [Q240D],-0.979
9,MRKPRAAVGSGHRKQAASQEGRQKHAKNNSQAKPSACDGLARQPEEVVLQASVSSYHLFRDVAEVTAFRGSLLSWYDQEKRDLPWRRRAEDEMDLDRRAYAVWVSEVMLQQTQVATVINYYTGWMQKWPTLQDLASASLEEVNQLWAGLGYYSRGRRLQEGARKVVEELGGHMPRTAETLQQLLPGVGRYTAGAIASIAFGQATGVVDGNVARVLCRVRAIGADPSSTLVSQQLWGLAQHLVDPARPGDFNQAAMELGATVCTPQRPLCSQCPVESLCRARQRVEQEQLLASGSLSGSPDVEECAPNTGQCHLCLPPSEPWDQTLGVVNFPRKASRKPPREESSATCVLEQPGALGAQILLVQRPNSGLLAGLWEFPSVTWEPSEQLQRKALLQELQRWAGPLPATHLRHLGEVVHTFSHIKLTYQVYGLALEGQTPVTTVPPGARWLTQEEFHTAAVSTAMKKVFRVYQGQQPGTCMGSKRSQVSSPCSRKKPRMGQQVLDNFFRSHISTDAHSLNSAAQ [Q240H],-0.94
10,MRKPRAAVGSGHRKQAASQEGRQKHAKNNSQAKPSACDGLARQPEEVVLQASVSSYHLFRDVAEVTAFRGSLLSWYDQEKRDLPWRRRAEDEMDLDRRAYAVWVSEVMLQQTQVATVINYYTGWMQKWPTLQDLASASLEEVNQLWAGLGYYSRGRRLQEGARKVVEELGGHMPRTAETLQQLLPGVGRYTAGAIASIAFGQATGVVDGNVARVLCRVRAIGADPSSTLVSQQLWGLAQILVDPARPGDFNQAAMELGATVCTPQRPLCSQCPVESLCRARQRVEQEQLLASGSLSGSPDVEECAPNTGQCHLCLPPSEPWDQTLGVVNFPRKASRKPPREESSATCVLEQPGALGAQILLVQRPNSGLLAGLWEFPSVTWEPSEQLQRKALLQELQRWAGPLPATHLRHLGEVVHTFSHIKLTYQVYGLALEGQTPVTTVPPGARWLTQEEFHTAAVSTAMKKVFRVYQGQQPGTCMGSKRSQVSSPCSRKKPRMGQQVLDNFFRSHISTDAHSLNSAAQ [Q240I],-0.959
11,MRKPRAAVGSGHRKQAASQEGRQKHAKNNSQAKPSACDGLARQPEEVVLQASVSSYHLFRDVAEVTAFRGSLLSWYDQEKRDLPWRRRAEDEMDLDRRAYAVWVSEVMLQQTQVATVINYYTGWMQKWPTLQDLASASLEEVNQLWAGLGYYSRGRRLQEGARKVVEELGGHMPRTAETLQQLLPGVGRYTAGAIASIAFGQATGVVDGNVARVLCRVRAIGADPSSTLVSQQLWGLAQPLVDPARPGDFNQAAMELGATVCTPQRPLCSQCPVESLCRARQRVEQEQLLASGSLSGSPDVEECAPNTGQCHLCLPPSEPWDQTLGVVNFPRKASRKPPREESSATCVLEQPGALGAQILLVQRPNSGLLAGLWEFPSVTWEPSEQLQRKALLQELQRWAGPLPATHLRHLGEVVHTFSHIKLTYQVYGLALEGQTPVTTVPPGARWLTQEEFHTAAVSTAMKKVFRVYQGQQPGTCMGSKRSQVSSPCSRKKPRMGQQVLDNFFRSHISTDAHSLNSAAQ [Q240P],-1
12,MRKPRAAVGSGHRKQAASQEGRQKHAKNNSQAKPSACDGLARQPEEVVLQASVSSYHLFRDVAEVTAFRGSLLSWYDQEKRDLPWRRRAEDEMDLDRRAYAVWVSEVMLQQTQVATVINYYTGWMQKWPTLQDLASASLEEVNQLWAGLGYYSRGRRLQEGARKVVEELGGHMPRTAETLQQLLPGVGRYTAGAIASIAFGQATGVVDGNVARVLCRVRAIGADPSSTLVSQQLWGLAQELVDPARPGDFNQAAMELGATVCTPQRPLCSQCPVESLCRARQRVEQEQLLASGSLSGSPDVEECAPNTGQCHLCLPPSEPWDQTLGVVNFPRKASRKPPREESSATCVLEQPGALGAQILLVQRPNSGLLAGLWEFPSVTWEPSEQLQRKALLQELQRWAGPLPATHLRHLGEVVHTFSHIKLTYQVYGLALEGQTPVTTVPPGARWLTQEEFHTAAVSTAMKKVFRVYQGQQPGTCMGSKRSQVSSPCSRKKPRMGQQVLDNFFRSHISTDAHSLNSAAQ [Q240E],-0.919
